2 substances from patent publication US20200347136A1, “CONSTRAINED CYCLIC PEPTIDES AS INHIBITORS OF THE CD2:CD58 PROTEIN-PROTEIN INTERACTION FOR TREATMENT OF DISEASES AND AUTOIMMUNE DISORDERS” (Board of Supervisors for the University of Louisiana System, priority 2019, published 2020) can be followed below.

In assay [1] the target is CD58 expressed on OVCAR-3 and HFLS-RA cells (human) (UniProt P19256). The assay is described as follows: cell adhesion inhibition (Jurkat CD2 / CD58 cells); OVCAR-3 cells.
For assay [2] the target is unchanged. The assay is described as follows: cell adhesion inhibition (Jurkat CD2 / CD58 cells); HFLS-RA cells.

CD58 expressed on OVCAR-3 and HFLS-RA cells (human), sequence (P19256 29-250): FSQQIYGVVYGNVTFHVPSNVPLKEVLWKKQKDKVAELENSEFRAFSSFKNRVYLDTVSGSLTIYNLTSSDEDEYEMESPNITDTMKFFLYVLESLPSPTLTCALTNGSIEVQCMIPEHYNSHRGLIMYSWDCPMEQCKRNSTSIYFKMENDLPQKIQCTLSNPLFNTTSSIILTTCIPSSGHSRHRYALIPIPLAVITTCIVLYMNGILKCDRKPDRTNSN

On to SFTI-wt (control), for which the IC50 in assay [1] and in assay [2] was greater than 50 µM throughout.
Control: the IC50 in assay [1] and in assay [2] was greater than 100 µM in each case.
